According to US20210198368A1 (Novartis, published 2021):

T1: human CLL1 expressed on cancer cell lines HL60 and U937 (human, UniProt Q5QGZ9 1-265)
T1 sequence (looked up): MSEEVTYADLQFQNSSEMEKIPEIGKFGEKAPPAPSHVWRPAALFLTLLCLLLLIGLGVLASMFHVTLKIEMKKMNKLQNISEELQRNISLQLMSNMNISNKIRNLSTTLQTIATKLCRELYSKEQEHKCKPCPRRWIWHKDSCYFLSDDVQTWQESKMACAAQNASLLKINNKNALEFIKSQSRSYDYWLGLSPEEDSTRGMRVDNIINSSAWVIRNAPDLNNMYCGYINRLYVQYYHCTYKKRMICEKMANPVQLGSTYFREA

B1: CD3 × CLL1_11 (bispecific antibody)
chain 1: QVQLVQSGGGVVQPGRSLRLSCKASGYTFTRYTMHWVRQAPGKGLEWIGYINPSRGYTNYNQKVKDRFTISRDNSKNTAFLQMDSLRPEDTGVYFCARYYDDHYSLDYWGQGTPVTVSSGGGGSGGGKSKKGGSGGGGSDIQMTQSPSSLSASVGDRVTITCSASSSVSYMNWYQQTPGKAPKRWIYDTSKLASGVPSRFSGSGSGTDYTFTISSLQPEDIATYYCQQWSSNPFTFGQGTKLQITGGGGSDKTHTCPPCPAPELLGGPSVFLFPPKPKDTLMISRTPEVTCVVVAVSHEDPEVKFNWYVDGVEVHNAKTKPREEQYNSTYRVVSVLTVLHQDWLNGKEYKCKVSNKALAAPIEKTISKAKGQPREPQVCTLPPSRDELTKNQVSLSCAVKGFYPSDIAVEWESNGQPENNYKTTPPVLDSDGSFFLVSKLTVDKSRWQQGNVFSCSVMHEALHNHYTQKSLSLSPGK
chain 2: EVQLVQSGGGVVRSGRSLRLSCAASGFTFNSYGLHWVRQAPGKGLEWVALIEYDGSNKYYGDSVKGRFTISRDKSKSTLYLQMDNLRAEDTAVYYCAREGNEDLAFDIWGQGTLVTVSSGGGGSGGGGSGGGGSGGGGSEIVLTQSPSSLSASVGDRVTITCQASQFIKKNLNWYQHKPGKAPKLLIYDASSLQTGVPSRFSGNRSGTTFSFTISSLQPEDVATYYCQQHDNLPLTFGGGTKVEIKGGGGSGSDKTHTCPPCPAPELLGGPSVFLFPPKPKDTLMISRTPEVTCVVVAVSHEDPEVKFNWYVDGVEVHNAKTKPREEQYNSTYRVVSVLTVLHQDWLNGKEYKCKVSNKALAAPIEKTISKAKGQPREPQVYTLPPCRDELTKNQVSLWCLVKGFYPSDIAVEWESNGQPENNYKTTPPVLDSDGSFFLYSKLTVDKSRWQQGNVFSCSVMHEALHNHYTQKSLSLSPGK
B2: CD3 × CLL1_06 (bispecific antibody)
chain 1: B1 chain 1
chain 2: EVQLVESGGGLVKPGGSLRLSCAASGFTFSSYSMNWVRQAPGKGLEWVSSISSSSSYIYYADSVKGRFTISRDNAKNSLYLQMNSLRAEDTAVYYCARDPSSSGSYYMEDSYYYGMDVWGQGTTVTVSSGGGGSGGGGSGGGGSNFMLTQPHSVSESPGKTVTISCTGSSGSIASNYVQWYQQRPGSAPTTVIYEDNQRPSGVPDRFSGSIDSSSNSASLTISGLKTEDEADYYCQSYDSSNQVVFGGGTKLTVLGGGGSGSDKTHTCPPCPAPELLGGPSVFLFPPKPKDTLMISRTPEVTCVVVAVSHEDPEVKFNWYVDGVEVHNAKTKPREEQYNSTYRVVSVLTVLHQDWLNGKEYKCKVSNKALAAPIEKTISKAKGQPREPQVYTLPPCRDELTKNQVSLWCLVKGFYPSDIAVEWESNGQPENNYKTTPPVLDSDGSFFLYSKLTVDKSRWQQGNVFSCSVMHEALHNHYTQKSLSLSPGK
B3: CD3 × CLL1_07 (bispecific antibody)
chain 1: B1 chain 1
chain 2: QVQLVESGGGLVQPGGSLRLSCAASGFTFSSYWMSWVRQAPGKGLEWVANINEDGSAKFYVDSVKGRFTISRDNAKNSLYLQMNSLRAEDTAVYFCARDLRSGRYWGQGTLVTVSSGGGGSGGGGSGGGGSEIVLTQSPGTLSLSPGGRATLSCRASQSISGSFLAWYQQKPGQAPRLLIYGASSRATGIPDRFSGSGSGTDFTLTISRLEPEDFAVYYCQQYGSSPPTFGLGTKLEIKGGGGSDKTHTCPPCPAPELLGGPSVFLFPPKPKDTLMISRTPEVTCVVVAVSHEDPEVKFNWYVDGVEVHNAKTKPREEQYNSTYRVVSVLTVLHQDWLNGKEYKCKVSNKALAAPIEKTISKAKGQPREPQVYTLPPCRDELTKNQVSLWCLVKGFYPSDIAVEWESNGQPENNYKTTPPVLDSDGSFFLYSKLTVDKSRWQQGNVFSCSVMHEALHNHYTQKSLSLSPGK
B4: CD3 × CLL1_13 (bispecific antibody)
chain 1: B1 chain 1
chain 2: QVQLVQSGAEVKKSGASVKVSCKASGYPFTGYYIQWVRQAPGQGLEWMGWIDPNSGNTGYAQKFQGRVTMTRNTSISTAYMELSSLRSEDTAVYYCASDSYGYYYGMDVWGQGTLVTVSSGGGGSGGGGSGGGGSGGGGSDIQMTQSPSSLSASVGDRVTFTCRASQGISSALAWYQQKPGKPPKLLIYDASSLESGVPSRFSGSGSGTDFTLTISSLQPEDFATYYCQQFNNYPLTFGGGTKVEIKGGGGSGSDKTHTCPPCPAPELLGGPSVFLFPPKPKDTLMISRTPEVTCVVVAVSHEDPEVKFNWYVDGVEVHNAKTKPREEQYNSTYRVVSVLTVLHQDWLNGKEYKCKVSNKALAAPIEKTISKAKGQPREPQVYTLPPCRDELTKNQVSLWCLVKGFYPSDIAVEWESNGQPENNYKTTPPVLDSDGSFFLYSKLTVDKSRWQQGNVFSCSVMHEALHNHYTQKSLSLSPGK
B5: CD3 × CLL1_12 (bispecific antibody)
chain 1: B1 chain 1
chain 2: not shown
B6: CD3 × CLL1_09 (bispecific antibody)
chain 1: B1 chain 1
chain 2: QVQLVQSGAEVKEPGASVKVSCKAPANTFSDHVMHWVRQAPGQRFEWMGYIHAANGGTHYSQKFQDRVTITRDTSANTVYMDLSSLRSEDTAVYYCARGGYNSDAFDIWGQGTMVTVSSGGGGSGGGGSGGGGSGGGGSDIVMTQSPSSVSASVGDRVTITCRASQDISSWLAWYQQKPGKAPKLLIYAASSLQSGVPSRFNGSGSGTDFTLTISSLQPEDFATYYCQQSYSTPLTFGGGTKVEIKGGGGSGSDKTHTCPPCPAPELLGGPSVFLFPPKPKDTLMISRTPEVTCVVVAVSHEDPEVKFNWYVDGVEVHNAKTKPREEQYNSTYRVVSVLTVLHQDWLNGKEYKCKVSNKALAAPIEKTISKAKGQPREPQVYTLPPCRDELTKNQVSLWCLVKGFYPSDIAVEWESNGQPENNYKTTPPVLDSDGSFFLYSKLTVDKSRWQQGNVFSCSVMHEALHNHYTQKSLSLSPGK
B7: CD3 × CLL1_02 (bispecific antibody)
chain 1: B1 chain 1
chain 2: EVQLVESGGGVVQPGGSLRLSCAASGFTFDDYAMHWVRQAPGKGLEWVSLISGDGGSTYYADSVKGRFTISRDNSKNTLYLQMNSLRVEDTAVYYCARVFDSYYMDVWGKGTTVTVSSGGGGSGGGGSGSGGSEIVLTQSPLSLPVTPGQPASISCRSSQSLVYTDGNTYLNWFQQRPGQSPRRLIYKVSNRDSGVPDRFSGSGSDTDFTLKISRVEAEDVGIYYCMQGTHWSFTFGQGTRLEIKGGGGSDKTHTCPPCPAPELLGGPSVFLFPPKPKDTLMISRTPEVTCVVVAVSHEDPEVKFNWYVDGVEVHNAKTKPREEQYNSTYRVVSVLTVLHQDWLNGKEYKCKVSNKALAAPIEKTISKAKGQPREPQVYTLPPCRDELTKNQVSLWCLVKGFYPSDIAVEWESNGQPENNYKTTPPVLDSDGSFFLYSKLTVDKSRWQQGNVFSCSVMHEALHNHYTQKSLSLSPGK

biological target: T1, human CLL1 expressed on cancer cell …; assay: cell-based or functional assay

**Q.** How did the “EC50 (nM), Killing HL60 (T-cell mediated killing of the CLL1-positive cancer cell line)” value (“EC50 (nM), Killing HL60” below) turn out when B1 was run?
**A.** 0.03 nM

**Q.** And the “EC50 (nM), NFAT U937 (T-cell activation, Jurkat NFAT luciferase reporter assay)” value (“EC50 (nM), NFAT U937” for short)?
**A.** 0.08 nM

**Q.** Which results are given for B2?
**A.** EC50 (nM), Killing HL60 (T-cell mediated killing of the CLL1-positive cancer cell line): 1.27 nM; EC50 (nM), NFAT U937 (T-cell activation, Jurkat NFAT luciferase reporter assay): 0.96 nM

**Q.** For B3, which “EC50 (nM), Killing HL60” value is on record?
**A.** 44.3 nM

**Q.** Which results are given for B4?
**A.** EC50 (nM), Killing HL60 (T-cell mediated killing of the CLL1-positive cancer cell line): 4.24 nM; EC50 (nM), NFAT U937 (T-cell activation, Jurkat NFAT luciferase reporter assay): 2.16 nM

**Q.** For B5, which “EC50 (nM), Killing HL60” value is on record?
**A.** 0.2 nM

**Q.** And the “EC50 (nM), NFAT U937” value?
**A.** 0.63 nM

**Q.** How did the “EC50 (nM), Killing HL60” value turn out when B6 was run?
**A.** 0.36 nM

**Q.** And the “EC50 (nM), NFAT U937” value?
**A.** 1.74 nM

**Q.** B7 was tested. Which “EC50 (nM), Killing HL60” value did it give?
**A.** > 300 nM
